Measured values from publication PMC10432803.

How the values were obtained:
[1] = target: PaSOD-2 (Cys-less CuZnSOD from Paenibacillus lautus NBRC 15380, WP_246059286.1 without the predicted signal peptide) (Paenibacillus lautus NBRC 15380); assay: SEC-MALS; holo form (copper and zinc bound); 20 μM protein in MN buffer (50 mM Mops, 100 mM NaCl, pH 7.0); Cosmosil 5Diol-300-II column, miniDAWN TREOS
[2] = target: PaSOD-2 (Cys-less CuZnSOD from Paenibacillus lautus NBRC 15380, WP_246059286.1 without the predicted signal peptide) (Paenibacillus lautus NBRC 15380); assay: SEC-MALS; apo form; 20 μM protein in MN buffer (50 mM Mops, 100 mM NaCl, pH 7.0); Cosmosil 5Diol-300-II column, miniDAWN TREOS
[3] = target: PaSOD-1 (Cys-less CuZnSOD from Paenibacillus lautus NBRC 15380, WP_246059278.1 without the predicted signal peptide) (Paenibacillus lautus NBRC 15380); assay: SEC-MALS; holo form (copper and zinc bound); 20 μM protein in MN buffer (50 mM Mops, 100 mM NaCl, pH 7.0); Cosmosil 5Diol-300-II column, miniDAWN TREOS
[4] = target: PaSOD-1 (Cys-less CuZnSOD from Paenibacillus lautus NBRC 15380, WP_246059278.1 without the predicted signal peptide) (Paenibacillus lautus NBRC 15380); assay: SEC-MALS; apo form; 20 μM protein in MN buffer (50 mM Mops, 100 mM NaCl, pH 7.0); Cosmosil 5Diol-300-II column, miniDAWN TREOS

stoichiometry N [1]	stoichiometry N [2]	stoichiometry N [3]	stoichiometry N [4]	Substance
2	2	–	–	PaSOD-2 (Cys-less CuZnSOD from Paenibacillus lautus NBRC 15380, WP_246059286.1 without the predicted signal peptide) (enzyme)
–	–	2	2	PaSOD-1 (Cys-less CuZnSOD from Paenibacillus lautus NBRC 15380, WP_246059278.1 without the predicted signal peptide) (enzyme)
